{
  "source": "patent US12637513B2",
  "about": "“Method of treating cancer by administering an inhibitor of erythropoietin receptor activity comprising either erythropoietin receptor or erythropoietin protein” (ImmunEdge, Inc., priority 2022, dated 2026)",
  "molecules": {"B1": {"name": "EPORab - M2: hybridoma antibody clone, VH/VK in Table 10 (antibody, V domains shown)", "VH": "QVQLVESGGGLVKPGGSLRLSCAASGFTFSDSYMSWIRQAPGKGLEWVSYISNSGSYMYYADSVKGRFTISRDNAKNSLYLQMNNLRAEDTAVYYCARDKLGIGDYWGQGTLVTVSS", "VL": "DIQMTQSPSSLSASVGDRVTITCRASQGIRNDLGWFQQKPGKAPKRLIYAASRLQSGVPSRFSGSGSGTEFTLTISSLQPEDFATYCCLQHHTYPPTFGQGTKVEIK"}},
  "key": {"[1]": {"target": "T1, soluble hetero-EPOR (EPOR-CD131-Fc) (Homo sapiens, UniProt P19235+P32927)", "T1 construct": "Chimeric Fc fusion proteins of the extracellular domains of human EPOR and human CD131; purchased Sino Biological CT010-H02H", "T1 sequence (P19235 25-250 limits assumed)": "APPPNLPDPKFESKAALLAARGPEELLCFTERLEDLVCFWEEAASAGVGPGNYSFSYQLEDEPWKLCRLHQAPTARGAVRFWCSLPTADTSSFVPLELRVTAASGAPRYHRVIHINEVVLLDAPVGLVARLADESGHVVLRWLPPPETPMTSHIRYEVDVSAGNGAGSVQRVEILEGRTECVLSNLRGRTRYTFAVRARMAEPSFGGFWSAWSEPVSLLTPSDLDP", "T1 sequence (P32927 17-443 limits assumed)": "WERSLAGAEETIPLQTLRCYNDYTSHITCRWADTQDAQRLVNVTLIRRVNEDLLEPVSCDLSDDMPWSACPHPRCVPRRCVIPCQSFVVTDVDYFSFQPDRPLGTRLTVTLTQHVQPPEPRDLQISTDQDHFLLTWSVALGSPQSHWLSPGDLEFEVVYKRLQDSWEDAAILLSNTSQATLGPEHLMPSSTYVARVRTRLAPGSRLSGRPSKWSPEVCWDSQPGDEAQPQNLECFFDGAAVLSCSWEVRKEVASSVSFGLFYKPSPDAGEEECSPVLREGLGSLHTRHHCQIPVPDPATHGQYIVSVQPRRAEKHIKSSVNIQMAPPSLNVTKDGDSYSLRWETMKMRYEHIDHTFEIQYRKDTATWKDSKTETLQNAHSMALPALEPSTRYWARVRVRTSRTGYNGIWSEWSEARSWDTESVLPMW", "test": "Bio-layer interferometry (Octet) binding of hybridoma antibodies to EPOR-CD131-Fc", "settings": "hybridoma supernatants; 30 nM soluble receptor", "text": "(§1) The B cells from ATX-GK mice were fused with mouse myeloma cells to generate hybridoma. The hybridoma cells were screened twice. In the first screening, 293 cells expressing human EPOR, human CD131, or both were used as the primary screen. 87 hybridoma antibodies have been isolated by positive staining on 293T cells expressing human EPOR (hEPOR), human CD131 (hCD131), or both, with the hybridoma supernatants (Table 11 and FIG. 17). Expression of EPOR and CD131 was confirmed by flow cytometry with Phycoerythrin (PE)-labeled anti-EPOR (R&D Systems, Cat #FAB307P) and Alexa Fluor® 647 (AF647)-labeled anti-CD131 (BD Biosciences, Cat #564191), respectively (FIG. 28B). All hybridoma clones were purified and sequenced. Binding kinetics with soluble hetero-EPOR (EPOR-CD131-Fc), soluble EPO receptor subunit of hetero-EPOR (EPOR-Fc), and soluble CD131 subunit of hetero-EPOR (CD131-Fc) were measured using bio-layer interferometry (Octet®) by capturing the hybridoma antibodies in the supernatants on biosensors coated with anti-mouse Fc first and dipping the biosensors into the solutions containing 30 nM of the soluble receptor Fc fusion proteins. The supernatants were also used to block the interaction between EPO and EPOR. The soluble EPOR-CD131-Fc was first captured on biosensors coated with anti-human Fc and then dipped into 10 nM of EPO with or without the hybridoma supernatants. […]"}, "EPOR-Fc": {"target": "T2, EPOR-Fc (Homo sapiens, UniProt P19235)", "T2 construct": "The extracellular domains of EPOR or CD131 are produced as soluble Fc fusion proteins; purchased Sino Biological 10707-H02H", "T2 sequence (P19235 25-250 limits assumed)": "T1 sequence (P19235 25-250 limits assumed)", "test": "Bio-layer interferometry (Octet) binding of hybridoma antibodies to EPOR-Fc", "settings": "hybridoma supernatants; 30 nM soluble receptor", "text": "as §1"}, "[2]": {"target": "T3, EPO/EPOR interaction (EPOR-CD131-Fc and EPO) (Homo sapiens, UniProt P19235+P32927)", "T3 construct": "Chimeric Fc fusion proteins of the extracellular domains of human EPOR and human CD131; purchased Sino Biological CT010-H02H", "T3 sequence (P19235 25-250 limits assumed)": "T1 sequence (P19235 25-250 limits assumed)", "T3 sequence (P32927 17-443 limits assumed)": "T1 sequence (P32927 17-443 limits assumed)", "test": "Octet blocking of the EPO/EPOR interaction by hybridoma supernatants", "assay_type": "binding", "settings": "EPO 10 nM"}, "293T/EPOR cells": {"target": "T4, 293T/EPOR cells (Homo sapiens, UniProt P19235)", "T4 construct": "expressed in transfected cells; host or cells: 293T cells expressing hEPOR", "T4 sequence (P19235 25-508)": "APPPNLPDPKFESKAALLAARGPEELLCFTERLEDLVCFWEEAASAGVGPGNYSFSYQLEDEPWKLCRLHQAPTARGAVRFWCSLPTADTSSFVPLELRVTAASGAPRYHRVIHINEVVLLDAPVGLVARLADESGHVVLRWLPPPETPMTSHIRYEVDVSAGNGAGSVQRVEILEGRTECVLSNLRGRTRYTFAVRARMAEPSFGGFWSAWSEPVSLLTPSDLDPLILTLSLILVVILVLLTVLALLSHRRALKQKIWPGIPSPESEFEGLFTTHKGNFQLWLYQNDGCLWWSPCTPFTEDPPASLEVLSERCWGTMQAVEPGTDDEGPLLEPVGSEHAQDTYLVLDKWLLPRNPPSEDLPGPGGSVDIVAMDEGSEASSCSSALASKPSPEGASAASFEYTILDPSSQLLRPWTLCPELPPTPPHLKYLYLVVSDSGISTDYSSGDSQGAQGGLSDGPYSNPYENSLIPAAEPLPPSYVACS", "test": "Staining of 293T/EPOR cells with purified antibodies (flow cytometry)", "assay_type": "binding", "experimental": "(§2) The purified antibodies were used to stain the human leukemia UT-7 cells, 293T/EPOR, 293T/CD131, and 293T/EPOR/CD131 cells to confirm antigen binding. The UT-7 cells were maintained in Roswell Park Memorial Institute (RPMI) with 10% Fetal Bovine Serum (FBS) and 5 ng/ml of recombinant human GM-CSF (Peprotech®, Cat #300-03). The 293T cells expressing hEPOR, hCD131, or both were maintained in Dulbecco's Modified Eagle Medium (DMEM) with 10% FBS. 1×10^6 cells/ml were incubated with purified hybridoma clones M2 and M41 at a 3-fold dilution series starting from 20 μg/ml for 30 minutes at 4° C. After washing, the cells were incubated with PE labeled secondary antibody and subjected to flowcytometric analysis. […] The binding profiles of the 293T/EPOR/CD131 cells are similar except the peak MFIs around 1500, half of that of the 293T/EPOR cells (FIG. 29B)."}, "UT-7 cells": {"target": "T5, UT-7 cells (Homo sapiens, UniProt P19235)", "T5 construct": "endogenous in cells; host or cells: UT-7 human leukemia cells", "T5 sequence (P19235 25-508)": "T4 sequence (P19235 25-508)", "test": "Staining of UT-7 cells with purified antibodies", "assay_type": "binding", "experimental": "as §2"}, "EPOR (UT-7 cells)": {"target": "T6, EPOR (UT-7 cells) (Homo sapiens, UniProt P19235)", "T6 construct": "endogenous in cells; host or cells: UT-7 human leukemia cells", "T6 sequence (P19235 25-508)": "T4 sequence (P19235 25-508)", "test": "Flow-based phosphorylated Stat5 assay, blocking by anti-EPOR antibodies", "assay_type": "cell-based", "settings": "20 μg/ml antibody; 0.1 μg/ml recombinant human EPO", "experimental": "EPOR activation leads to phosphorylation of Stat5. A flow-based assay on phosphorylated Stat5 was set up to test the blocking activities of anti-EPOR antibodies. The UT-7 cells were cultured without GM-CSF for overnight before the EPO stimulation. 3×10^6 cells/ml were incubated with 20 μg/ml of anti-EPOR for 15 minutes before stimulation with 0.1 μg/ml of recombinant human EPO (Peprotech®, Cat #100-64) for 10 minutes at 37° C. The cells were fixed immediately with fixation buffer (Cytofix™ buffer; BD Biosciences, Cat #554655) and permeabilized with methanol. After washing, cells were stained with PE labeled anti-Stat5 (BD Biosciences, Cat #612567) and subjected to flow cytometry analysis."}},
  "data": [
    {"molecule": "B1", "values": [
      {"measurement": "binding to EPOR-CD131-Fc", "setting": "[1]", "value": "potent binding"},
      {"measurement": "binding to EPOR-Fc", "setting": "EPOR-Fc", "value": "potent binding"},
      {"measurement": "blocking of the EPO/EPOR interaction", "setting": "[2]", "value": "nearly complete blocking"},
      {"measurement": "mean or median fluorescence intensity (MFI)", "setting": "293T/EPOR cells; 27 ng/ml purified antibody, 293T/EPOR cells", "value": "~100", "unit": "%"},
      {"measurement": "binding to 293T/EPOR cells", "setting": "293T/EPOR cells; 20 μg/ml purified antibody", "value": "robust binding activities"},
      {"measurement": "MFI", "setting": "UT-7 cells", "value": "~18,000"},
      {"measurement": "blocking of Stat5 phosphorylation", "setting": "EPOR (UT-7 cells)", "value": "complete blocking"}
    ]}
  ]
}
